Test results taken from publication PMC2659767, “Tracking Membrane Protein Association in Model Membranes” (PLoS ONE, 2009).

Experiments:
[1] = biological target: the molecule itself; assay: FRAPP (fluorescence recovery after fringe pattern photobleaching); FITC-labeled OprM alone in the sponge phase, dW>170 A; hydrodynamic radius from the diffusion coefficient compared with crystallographic and electron microscopy data
[2] = biological target: T1, OprM trimer, unlabeled (Pseudomonas aeruginosa, UniProt Q51487 18-485, palmitoyl moiety (said of the protein in general)); assay: FRAPP (fluorescence recovery after fringe pattern photobleaching); as a5 (dW about 200 A, stoichiometry from free MexA intensity) but at pH 5.5; conditions: both partners purified
T1 construct: OprM, outer membrane protein of the MexA-MexB-OprM efflux pump of Pseudomonas aeruginosa; also called outer membrane protein OprM; source: expressed and purified as previously described [50]; solubilized in 1% beta-octylglucoside, then inserted into the L3 sponge phase
T1 sequence: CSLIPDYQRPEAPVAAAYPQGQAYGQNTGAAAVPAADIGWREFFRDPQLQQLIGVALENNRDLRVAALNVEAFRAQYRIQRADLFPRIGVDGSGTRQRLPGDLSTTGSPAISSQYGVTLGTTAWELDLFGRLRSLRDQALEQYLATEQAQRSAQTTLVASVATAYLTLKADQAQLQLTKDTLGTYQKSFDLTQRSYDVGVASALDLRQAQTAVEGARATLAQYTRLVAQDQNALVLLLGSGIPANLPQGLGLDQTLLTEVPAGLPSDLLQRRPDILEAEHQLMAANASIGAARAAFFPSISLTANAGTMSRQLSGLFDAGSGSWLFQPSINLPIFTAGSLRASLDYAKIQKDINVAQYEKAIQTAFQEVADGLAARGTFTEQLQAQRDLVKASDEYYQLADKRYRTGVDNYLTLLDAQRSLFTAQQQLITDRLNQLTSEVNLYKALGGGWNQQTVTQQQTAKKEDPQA

[3] = biological target: T1, OprM trimer, unlabeled; assay: FRAPP (fluorescence recovery after fringe pattern photobleaching); dW about 200 A, pH 7.5; OprM trimer constant at 1 uM, molar ratio r of FITC-labeled MexA to OprM trimer varied; stoichiometry from the intensity I0 of free MexA; conditions: both partners purified

B1: OprM, FITC-labeled (natural protein)
chain: CSLIPDYQRPEAPVAAAYPQGQAYGQNTGAAAVPAADIGWREFFRDPQLQQLIGVALENNRDLRVAALNVEAFRAQYRIQRADLFPRIGVDGSGTRQRLPGDLSTTGSPAISSQYGVTLGTTAWELDLFGRLRSLRDQALEQYLATEQAQRSAQTTLVASVATAYLTLKADQAQLQLTKDTLGTYQKSFDLTQRSYDVGVASALDLRQAQTAVEGARATLAQYTRLVAQDQNALVLLLGSGIPANLPQGLGLDQTLLTEVPAGLPSDLLQRRPDILEAEHQLMAANASIGAARAAFFPSISLTANAGTMSRQLSGLFDAGSGSWLFQPSINLPIFTAGSLRASLDYAKIQKDINVAQYEKAIQTAFQEVADGLAARGTFTEQLQAQRDLVKASDEYYQLADKRYRTGVDNYLTLLDAQRSLFTAQQQLITDRLNQLTSEVNLYKALGGGWNQQTVTQQQTAKKEDPQA
modifications: FITC label; palmitoyl moiety (said of the protein in general)
notes: OprM, outer membrane protein of the MexA-MexB-OprM efflux pump of Pseudomonas aeruginosa; Same protein as m2, here labeled with FITC and measured alone; also called FITC-labeled OprM; OprM trimer; source: expressed and purified as previously described [50]; labeled with FITC; inserted into the L3 sponge phase
- stoichiometry N [1]: 3

B2: MexA, mature form bearing a palmitoyl moiety, FITC-labeled (natural protein)
chain: CGKSEAPPPAQTPEVGIVTLEAQTVTLNTELPGRTNAFRIAEVRPQVNGIILKRLFKEGSDVKAGQQLYQIDPATYEADYQSAQANLASTQEQAQRYKLLVADQAVSKQQYADANAAYLQSKAAVEQARINLRYTKVLSPISGRIGRSAVTEGALVTNGQANAMATVQQLDPIYVDVTQPSTALLRLRRELASGQLERAGDNAAKVSLKLEDGSQYPLEGRLEFSEVSVDEGTGSVTIRAVFPNPNNELLPGMFVHAQLQEGVKQKAILAPQQGVTRDLKGQATALVVNAQNKVELRVIKADRVIGDKWLVTEGLNAGDKIITEGLQFVQPGVEVKTVPAKNVASAQKADAAPAKTDSKG
modifications: palmitoyl moiety (on the unique N-terminal cysteine); FITC label
notes: MexA, periplasmic lipoprotein of the MexA-MexB-OprM efflux pump of Pseudomonas aeruginosa, in its mature form; Found monomeric in the sponge phase; also called FITC-labeled MexA; periplasmic protein MexA; source: solubilized in 1% beta-octylglucoside, then inserted into the L3 sponge phase
- stoichiometry N [2]: 6 MexA per OprM trimer
- stoichiometry N [3]: 2 MexA per OprM trimer
